The values below come from publication PMC10786891, “Massively parallel profiling of RNA-targeting CRISPR-Cas13d”.

Sequences and labels used below:
B1: target 1 MT 5'PFS UCA 3'PFS AAU (mixed)
RNA 1: CACCCGUGCAAAAAUGCAGGGGUCUAAAACUGAGCGGAUAACCUCUCUAUGG
RNA 2: GGGAAUGGAUCCACAUCUACGAAUUCUCACCAUAGAGAGGUUAUCCGCUCAAAUAGAUCGGAAGAGCACACGU
B2: target 1 MT 5'PFS GUA 3'PFS UGA (mixed)
RNA 1: CACCCGUGCAAAAAUGCAGGGGUCUAAAACUGAGCGGAUAACCUCUCUAUGG
RNA 2: GGGAAUGGAUCCACAUCUACGAAUUCGUACCAUAGAGAGGUUAUCCGCUCAUGAAGAUCGGAAGAGCACACGU
B3: target 1 MT 5'PFS AAG 3'PFS CGA (mixed)
RNA 1: CACCCGUGCAAAAAUGCAGGGGUCUAAAACUGAGCGGAUAACCUCUCUAUGG
RNA 2: GGGAAUGGAUCCACAUCUACGAAUUCAAGCCAUAGAGAGGUUAUCCGCUCACGAAGAUCGGAAGAGCACACGU
B4: target 1 MT 5'PFS GUA 3'PFS UGC (mixed)
RNA 1: CACCCGUGCAAAAAUGCAGGGGUCUAAAACUGAGCGGAUAACCUCUCUAUGG
RNA 2: GGGAAUGGAUCCACAUCUACGAAUUCGUACCAUAGAGAGGUUAUCCGCUCAUGCAGAUCGGAAGAGCACACGU
B5: target 1 MT 5'PFS UGU 3'PFS AUA (mixed)
RNA 1: CACCCGUGCAAAAAUGCAGGGGUCUAAAACUGAGCGGAUAACCUCUCUAUGG
RNA 2: GGGAAUGGAUCCACAUCUACGAAUUCUGUCCAUAGAGAGGUUAUCCGCUCAAUAAGAUCGGAAGAGCACACGU
B6: target 1 MT 5'PFS AGU 3'PFS AAG (mixed)
RNA 1: CACCCGUGCAAAAAUGCAGGGGUCUAAAACUGAGCGGAUAACCUCUCUAUGG
RNA 2: GGGAAUGGAUCCACAUCUACGAAUUCAGUCCAUAGAGAGGUUAUCCGCUCAAAGAGAUCGGAAGAGCACACGU
B7: target 1 MT 5'PFS AUG 3'PFS CUC (mixed)
RNA 1: CACCCGUGCAAAAAUGCAGGGGUCUAAAACUGAGCGGAUAACCUCUCUAUGG
RNA 2: GGGAAUGGAUCCACAUCUACGAAUUCAUGCCAUAGAGAGGUUAUCCGCUCACUCAGAUCGGAAGAGCACACGU
B8: target 1 A9U,U11A (mixed)
RNA 1: CACCCGUGCAAAAAUGCAGGGGUCUAAAACUGAGCGGAUAACCUCUCUAUGG
RNA 2: GGGAAUGGAUCCACAUCUACGAAUUCGUACCAUAGAGAGGAUUUCCGCUCACCGAGAUCGGAAGAGCACACGU
B9: target 1 U10A,U11G (mixed)
RNA 1: CACCCGUGCAAAAAUGCAGGGGUCUAAAACUGAGCGGAUAACCUCUCUAUGG
RNA 2: GGGAAUGGAUCCACAUCUACGAAUUCGUACCAUAGAGAGGGAAUCCGCUCACCGAGAUCGGAAGAGCACACGU
B10: target 1 MT 5'PFS GUA 3'PFS UGG (mixed)
RNA 1: CACCCGUGCAAAAAUGCAGGGGUCUAAAACUGAGCGGAUAACCUCUCUAUGG
RNA 2: GGGAAUGGAUCCACAUCUACGAAUUCGUACCAUAGAGAGGUUAUCCGCUCAUGGAGAUCGGAAGAGCACACGU
B11: target 1 MT 5'PFS AGU 3'PFS AAC (mixed)
RNA 1: CACCCGUGCAAAAAUGCAGGGGUCUAAAACUGAGCGGAUAACCUCUCUAUGG
RNA 2: GGGAAUGGAUCCACAUCUACGAAUUCAGUCCAUAGAGAGGUUAUCCGCUCAAACAGAUCGGAAGAGCACACGU
B12: target 1 MT 5'PFS AAG 3'PFS CGG (mixed)
RNA 1: CACCCGUGCAAAAAUGCAGGGGUCUAAAACUGAGCGGAUAACCUCUCUAUGG
RNA 2: GGGAAUGGAUCCACAUCUACGAAUUCAAGCCAUAGAGAGGUUAUCCGCUCACGGAGAUCGGAAGAGCACACGU
B13: target 1 MT 5'PFS AGU 3'PFS AAA (mixed)
RNA 1: CACCCGUGCAAAAAUGCAGGGGUCUAAAACUGAGCGGAUAACCUCUCUAUGG
RNA 2: GGGAAUGGAUCCACAUCUACGAAUUCAGUCCAUAGAGAGGUUAUCCGCUCAAAAAGAUCGGAAGAGCACACGU

Broadly, the Kd is the equilibrium constant for the complex coming apart. A low value points to a tighter complex.

The data set has as its target T1, EsCas13d, nuclease-dead (Eubacterium siraeum, UniProt B0MS50, R295A;H300A;R849A;H854A).
T1 sequence: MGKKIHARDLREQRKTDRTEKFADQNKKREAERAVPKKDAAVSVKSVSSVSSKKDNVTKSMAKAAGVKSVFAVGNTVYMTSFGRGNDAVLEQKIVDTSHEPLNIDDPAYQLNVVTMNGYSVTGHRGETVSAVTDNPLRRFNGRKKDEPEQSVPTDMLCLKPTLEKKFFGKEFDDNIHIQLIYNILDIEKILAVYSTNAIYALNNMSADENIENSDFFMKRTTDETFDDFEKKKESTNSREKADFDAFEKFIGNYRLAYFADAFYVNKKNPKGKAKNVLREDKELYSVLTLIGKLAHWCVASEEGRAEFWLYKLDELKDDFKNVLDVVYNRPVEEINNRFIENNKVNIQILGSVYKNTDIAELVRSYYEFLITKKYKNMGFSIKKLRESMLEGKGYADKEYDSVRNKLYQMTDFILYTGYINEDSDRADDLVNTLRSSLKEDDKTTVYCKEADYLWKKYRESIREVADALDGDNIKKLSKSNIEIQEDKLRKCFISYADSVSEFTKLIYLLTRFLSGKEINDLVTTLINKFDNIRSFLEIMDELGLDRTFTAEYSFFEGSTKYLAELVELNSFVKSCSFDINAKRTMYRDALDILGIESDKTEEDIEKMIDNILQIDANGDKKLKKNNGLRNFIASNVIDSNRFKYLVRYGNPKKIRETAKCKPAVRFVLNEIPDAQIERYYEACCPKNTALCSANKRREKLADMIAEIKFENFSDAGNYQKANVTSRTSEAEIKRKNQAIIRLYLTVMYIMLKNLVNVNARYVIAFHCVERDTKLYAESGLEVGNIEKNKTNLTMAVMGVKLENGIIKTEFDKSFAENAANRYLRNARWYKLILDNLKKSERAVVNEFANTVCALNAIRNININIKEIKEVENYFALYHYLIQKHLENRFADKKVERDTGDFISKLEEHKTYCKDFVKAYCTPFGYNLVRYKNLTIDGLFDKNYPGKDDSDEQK
The data set is described as follows: crRNA (strand 1, pre-loaded); Mg2+; 40 mM Tris-HCl pH 7.5, 150 mM NaCl, 6 mM MgCl2, 1 mM DTT, 0.1% Tween-20, 0.2 mg/ml BSA; 25 C; 10 min per concentration, then washed. The following applies: tags: His6-TwinStrep-SUMO cleaved; N-terminal SNAP kept (SNAP-Surface 488); label: 3' end held by stalled T7 RNA polymerase.
Molecule B1 returned an equilibrium dissociation constant (Kd) of 0.0192 ± 0.00635 µM.
As for B2, the Kd was determined as 0.0112 ± 0.00065 µM.
Regarding B3, the dissociation constant Kd stood at 0.038 ± 0.016 µM.
For B4 the value was 0.00568 ± 0.00046 µM.
Next, B5: 0.0625 ± 0.023 µM; B6: 0.055 ± 0.024 µM.
The molecule B7 registered a Kd of 0.0211 ± 0.00575 µM.
B8 registered a dissociation constant Kd of 0.0234 ± 0.0011 µM.
Next, B9: 0.0116 ± 0.0005 µM; B10: 0.0585 ± 0.0075 µM; B11: 0.049 ± 0.016 µM.
In turn, B12 registered an equilibrium dissociation constant (Kd) of 0.041 ± 0.0125 µM.
In turn, B13 came in with a Kd of approximately 0.1 µM.
